Earlier results in article PMC5979445.

Biological target: Calmodulin (UniProt P0DP23)

**Q.** For “TRPV1 CaM binding domain (from UniProt Q8NER1)”, which Kd is on record?
**A.** 54 nM
